From patent US9192657B2, “Activated protein C variants with normal cytoprotective activity but reduced anticoagulant activity” (The Scripps Research Institute, dated 2015)
Positions count from the first letter of the chain named. Names may count otherwise.

Experiments:
[1] = target: T1, endothelial protein C receptor (EPCR) on cells (Homo sapiens (Human), UniProt Q9UNN8); experiment: cell-based or functional assay
T1 sequence: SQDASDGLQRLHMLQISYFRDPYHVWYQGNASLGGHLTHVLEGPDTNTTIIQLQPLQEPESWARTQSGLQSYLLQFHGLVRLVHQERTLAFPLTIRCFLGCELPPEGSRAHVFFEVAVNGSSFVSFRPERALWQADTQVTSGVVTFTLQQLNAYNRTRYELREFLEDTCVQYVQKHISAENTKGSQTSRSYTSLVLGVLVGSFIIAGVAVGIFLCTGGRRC

[2] = target: T2, protease activated receptor-1 (PAR-1) (Homo sapiens (Human), UniProt P25116); experiment: cell-based or functional assay
T2 sequence: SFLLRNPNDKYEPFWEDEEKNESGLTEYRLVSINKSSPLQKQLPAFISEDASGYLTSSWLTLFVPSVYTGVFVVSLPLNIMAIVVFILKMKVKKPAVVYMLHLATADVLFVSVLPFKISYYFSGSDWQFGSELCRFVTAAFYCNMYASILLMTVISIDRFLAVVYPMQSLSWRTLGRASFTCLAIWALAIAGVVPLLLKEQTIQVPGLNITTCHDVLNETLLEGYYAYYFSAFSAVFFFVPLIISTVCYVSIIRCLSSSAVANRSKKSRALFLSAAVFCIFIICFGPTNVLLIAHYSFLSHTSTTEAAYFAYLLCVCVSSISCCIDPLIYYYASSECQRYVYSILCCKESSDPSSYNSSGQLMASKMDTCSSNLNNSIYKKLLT

[3] = target: T3, endothelial protein C receptor (EPCR), as in the binding assays (Homo sapiens (Human), UniProt Q9UNN8); experiment: apparent Kd; binding to immobilized soluble EPCR and to K293 cells transfected with wtEPCR (format of the value not told)
T3 sequence: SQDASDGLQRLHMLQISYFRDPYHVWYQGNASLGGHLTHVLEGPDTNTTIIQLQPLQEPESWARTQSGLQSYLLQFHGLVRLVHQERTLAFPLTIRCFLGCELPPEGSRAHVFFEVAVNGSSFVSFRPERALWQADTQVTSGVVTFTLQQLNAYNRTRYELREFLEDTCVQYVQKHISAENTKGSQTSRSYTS

factor Va = factor Va (human, UniProt P12259); experiment: cell-based or functional assay
[4] = target: T1, endothelial protein C receptor (EPCR) …; experiment: cell-based or functional assay; remark: listed apart in the source
[5] = target: T2, protease activated receptor-1 (PAR-1); experiment: cell-based or functional assay; remark: listed apart in the source
[6] = target: T1, endothelial protein C receptor (EPCR) …; experiment: cell-based or functional assay; remark: listed apart in the source
[7] = target: T2, protease activated receptor-1 (PAR-1); experiment: cell-based or functional assay; remark: listed apart in the source

B1: RR229/230AA plus KKK191-193AAA-APC (enzyme)
chain: ANSFLEELRHSSLERECIEEICDFEEAKEIFQNVDDTLAFWSKHVDGDQCLVLPLEHPCASLCCGHGTCIDGIGSFSCDCRSGWEGRFCQREVSFLNCSLDNGGCTHYCLEEVGWRRCSCAPGYKLGDDLLQCHPAVKFPCGRPWKRMEKKRSHLKRDTEDQEDQVDPRLIDGKMTRRGDSPWQVVLLDSAAALACGAVLIHPSWVLTAAHCMDESKKLLVRLGEYDLAAWEKWELDLDIKEVFVHPNYSKSTTDNDIALLHLAQPATLSQTIVPICLPDSGLAERELNQAGQETLVTGWGYHSSREKEAKRNRTFVLNFIKIPVVPHNECSEVMSNMVSENMLCAGILGDRQDACEGDSGGPMVASFHGTWFLVGLVSWGEGCGLLHNYGVYTKVSRYLDWIHGHIRDKEAPQKSWAP
half-maximum inhibition of staurosporine-induced endothelial cell apoptosis (Example 5) [1]: 0.7 nM | half-maximum inhibition of staurosporine-induced endothelial cell apoptosis (Example 5) [2]: 0.7 nM | Kd [3]: 29 nM

B2: KKK191-193AAA-APC (enzyme)
chain: B1 chain with A229R, A230R
half-maximum inhibition of staurosporine-induced apoptosis (EA.hy926 cells, Apopercentage dye) [1]: 0.14 nM | half-maximum inhibition of staurosporine-induced apoptosis (Eahy926 cells, Apopercentage staining) [1]: 0.2 nM | reduction of activated caspase-3-positive endothelial cells after staurosporine [1]: ~70% | half-maximum inhibition of staurosporine-induced apoptosis (EA.hy926 cells, Apopercentage dye) [2]: 0.14 nM | half-maximum inhibition of staurosporine-induced apoptosis (Eahy926 cells, Apopercentage staining) [2]: 0.2 nM | reduction of activated caspase-3-positive endothelial cells after staurosporine [2]: ~70% | anticoagulant activity (% rwt-APC), APTT clotting assay in human plasma (factor Va): 4.6 % rwt-APC | cytoprotective activity (% rwt-APC), from the concentrations for half-maximal inhibition of apoptosis [4]: 114 % rwt-APC | cytoprotective activity (% rwt-APC), from the concentrations for half-maximal inhibition of apoptosis [5]: 114 % rwt-APC | cytoprotective activity (% wt-APC) [6]: 120 % wt-APC | cytoprotective activity (% wt-APC) [7]: 120 % wt-APC

B3: R306A/K311A/R312A/R314A-APC (enzyme)
chain: B1 chain with A191K, A192K, A193K, A229R, A230R, R306A, K311A, R312A, R314A
cytoprotective activity (% wt-APC), staurosporine-induced apoptosis of Eahy926 cells [6]: < 1 % wt-APC | cytoprotective activity (% wt-APC), staurosporine-induced apoptosis of Eahy926 cells [7]: < 1 % wt-APC
